In patent US8722052B2, “Vaccinia virus protein A46 peptide and use thereof” (priority 2008, dated 2014):

Legend:
[1] = target: T1, TLR7 (Mus musculus, UniProt P58681); assay: murine TLR7 response; assay type: cell-based
T1 sequence (P58681 27-1050): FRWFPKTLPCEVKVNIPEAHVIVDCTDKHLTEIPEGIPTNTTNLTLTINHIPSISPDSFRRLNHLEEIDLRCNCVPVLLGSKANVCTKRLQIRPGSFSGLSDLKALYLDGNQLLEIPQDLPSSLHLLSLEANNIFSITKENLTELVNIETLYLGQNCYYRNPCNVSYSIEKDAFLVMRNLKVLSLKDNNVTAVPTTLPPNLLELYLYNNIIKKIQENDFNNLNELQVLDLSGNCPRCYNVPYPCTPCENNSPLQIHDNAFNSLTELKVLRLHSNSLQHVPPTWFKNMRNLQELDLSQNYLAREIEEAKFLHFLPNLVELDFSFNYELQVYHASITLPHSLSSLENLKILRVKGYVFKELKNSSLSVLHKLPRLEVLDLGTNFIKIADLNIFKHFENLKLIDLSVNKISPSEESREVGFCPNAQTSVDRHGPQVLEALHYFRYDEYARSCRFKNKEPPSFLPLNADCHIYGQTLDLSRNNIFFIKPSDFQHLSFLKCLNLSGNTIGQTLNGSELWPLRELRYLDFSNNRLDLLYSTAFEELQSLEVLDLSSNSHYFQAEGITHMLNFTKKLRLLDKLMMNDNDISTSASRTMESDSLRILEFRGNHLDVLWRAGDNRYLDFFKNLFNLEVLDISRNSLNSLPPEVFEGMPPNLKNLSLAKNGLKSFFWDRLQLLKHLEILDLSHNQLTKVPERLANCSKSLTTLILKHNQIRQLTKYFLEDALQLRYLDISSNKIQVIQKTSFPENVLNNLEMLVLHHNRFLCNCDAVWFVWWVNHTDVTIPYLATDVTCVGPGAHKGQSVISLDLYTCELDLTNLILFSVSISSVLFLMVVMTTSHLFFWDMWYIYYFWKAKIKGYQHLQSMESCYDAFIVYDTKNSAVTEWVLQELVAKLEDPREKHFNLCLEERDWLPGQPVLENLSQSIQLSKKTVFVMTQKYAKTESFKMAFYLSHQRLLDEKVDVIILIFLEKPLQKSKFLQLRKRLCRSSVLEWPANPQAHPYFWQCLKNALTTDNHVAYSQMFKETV

[2] = tested on: p38 MAPK; assay: LPS-induced phospho-p38 MAPK in RAW264.7 cells, immunoblot; assay type: cell-based, murine; conditions: peptide 5 μM, 10 ng/ml LPS 5, 30 or 60 min
Protocol: FIGS. 28A and B are immunoblots showing the effect of A464 on LPS-induced appearance of phospho-p38 MAPK in murine RAW264.7. Cells were set up as for FIG. 24 above and 5 μM A467 (SEQ ID NO. 23) or A464 (SEQ ID NO. 20) were added to the wells 1 hour before stimulation. Cells were stimulated with 10 ng/ml LPS for a period of 5, 30 or 60 min, then harvested and lysed. Proteins were resolved by SDS-PAGE, and transferred membranes immunoblotted for phospho-p38 (A) or total p38 (B). The blots shown are representative of two experiments;
RAW264.7 cells were seeded at a density of 1×10^5 cells/ml in 6 well plates. After treatment with peptides and agonists, as described above in relation to the Figs, the medium was removed and the cells were washed once with PBS before scraping them in 100 μl lysis buffer (100 mM NaCl, 50 mM HEPES (pH 7.5), 1 mM EDTA, 0.5% NP-40, 10% Glycerol) and incubating them on ice for 40 min. Samples were spun at 15,000×g for 10min and supernatants collected and stored at −20° C. […] The protein concentration was determined by monitoring the change in the solution absorbance at 280 nm using a spectrophotometer compared to protein standards. […] Thereafter, the membranes were washed, incubated in appropriate secondary antibody and then developed using standard enhanced chemi-luminescence (ECL) reagents. […]

KYSFKLILAEYRRRRRRRRR [Peptide A464] was tested, and the “inhibition of murine TLR7” value [1] was “insensitive” and the “inhibition of LPS-induced p38 phosphorylation” value [2] was “very potent inhibition of LPS-induced p38 phosphorylation at all the time points”.
